From publication PMC3557595 (Journal of molecular biology, 2012)

Columns and labels:
[1] = target: Hs H3.1(1-136)(S88Q/G103H)-His6/H4(1-103) (human, UniProt P68431 1-136; P62805 1-103, S88Q | G103H); experiment: pull-down
[2] = target: GS-CENP-A^Hs(60-140)-LVPR and GS-H4^Hs(22-103) (human, UniProt P49450 60-140; P62805 22-103); experiment: SEC
[3] = target: GS-CENP-A(60-140)-LVPR and H4^Hs(1-103) (human, UniProt P49450 60-140; P62805 1-103); experiment: SEC

binding result [1]: binds
binding result [2]: binds
binding result [3]: binds
B1: Hs GS-HJURP(2-81) (domain or fragment)
chain: GSLGTLRAMEGEDVEDDQLLQKLRASRRRFQRRMQRLIEKYNQPFEDTPVVQMATLTYETPQGLRIWGGRLIKERNEGEIQD
